In publication PMC12311180, “Structure and mechanism of the RalGAP tumor suppressor complex” (Nature Communications, 2025):

Key:
[1] = biological target: T1, RalGAPα2 (RGα2), full length, co-expressed in Expi293F and purified by FLAG affinity (UniProt Q2PPJ7 1-1873); test: cryo-EM structure; RGα2/RGβ/κB-Ras2 complex from Expi293F, FLAG affinity and Superose 6 in 20 mM HEPES pH 7.5, 150 mM NaCl, 2 mM MgCl2, 1 mM TCEP; single particle analysis of the half-particle, 3.8 Å overall; conditions: both partners purified
T1 construct: RalGAPα2, catalytic α-subunit of the RalGAP2 complex; catalytic asparagine N1742; residues 1-73 not resolved in the map; residue numbers (N1742, R1738, N943) are used together with human patient variants; also called RGα2^fl; source: Expi293F cells, transfected, purified (M2 anti-FLAG beads, 3xFLAG peptide elution; Superose 6 for cryo-EM)
T1 sequence (Q2PPJ7 whole entry, the tested form may be a part): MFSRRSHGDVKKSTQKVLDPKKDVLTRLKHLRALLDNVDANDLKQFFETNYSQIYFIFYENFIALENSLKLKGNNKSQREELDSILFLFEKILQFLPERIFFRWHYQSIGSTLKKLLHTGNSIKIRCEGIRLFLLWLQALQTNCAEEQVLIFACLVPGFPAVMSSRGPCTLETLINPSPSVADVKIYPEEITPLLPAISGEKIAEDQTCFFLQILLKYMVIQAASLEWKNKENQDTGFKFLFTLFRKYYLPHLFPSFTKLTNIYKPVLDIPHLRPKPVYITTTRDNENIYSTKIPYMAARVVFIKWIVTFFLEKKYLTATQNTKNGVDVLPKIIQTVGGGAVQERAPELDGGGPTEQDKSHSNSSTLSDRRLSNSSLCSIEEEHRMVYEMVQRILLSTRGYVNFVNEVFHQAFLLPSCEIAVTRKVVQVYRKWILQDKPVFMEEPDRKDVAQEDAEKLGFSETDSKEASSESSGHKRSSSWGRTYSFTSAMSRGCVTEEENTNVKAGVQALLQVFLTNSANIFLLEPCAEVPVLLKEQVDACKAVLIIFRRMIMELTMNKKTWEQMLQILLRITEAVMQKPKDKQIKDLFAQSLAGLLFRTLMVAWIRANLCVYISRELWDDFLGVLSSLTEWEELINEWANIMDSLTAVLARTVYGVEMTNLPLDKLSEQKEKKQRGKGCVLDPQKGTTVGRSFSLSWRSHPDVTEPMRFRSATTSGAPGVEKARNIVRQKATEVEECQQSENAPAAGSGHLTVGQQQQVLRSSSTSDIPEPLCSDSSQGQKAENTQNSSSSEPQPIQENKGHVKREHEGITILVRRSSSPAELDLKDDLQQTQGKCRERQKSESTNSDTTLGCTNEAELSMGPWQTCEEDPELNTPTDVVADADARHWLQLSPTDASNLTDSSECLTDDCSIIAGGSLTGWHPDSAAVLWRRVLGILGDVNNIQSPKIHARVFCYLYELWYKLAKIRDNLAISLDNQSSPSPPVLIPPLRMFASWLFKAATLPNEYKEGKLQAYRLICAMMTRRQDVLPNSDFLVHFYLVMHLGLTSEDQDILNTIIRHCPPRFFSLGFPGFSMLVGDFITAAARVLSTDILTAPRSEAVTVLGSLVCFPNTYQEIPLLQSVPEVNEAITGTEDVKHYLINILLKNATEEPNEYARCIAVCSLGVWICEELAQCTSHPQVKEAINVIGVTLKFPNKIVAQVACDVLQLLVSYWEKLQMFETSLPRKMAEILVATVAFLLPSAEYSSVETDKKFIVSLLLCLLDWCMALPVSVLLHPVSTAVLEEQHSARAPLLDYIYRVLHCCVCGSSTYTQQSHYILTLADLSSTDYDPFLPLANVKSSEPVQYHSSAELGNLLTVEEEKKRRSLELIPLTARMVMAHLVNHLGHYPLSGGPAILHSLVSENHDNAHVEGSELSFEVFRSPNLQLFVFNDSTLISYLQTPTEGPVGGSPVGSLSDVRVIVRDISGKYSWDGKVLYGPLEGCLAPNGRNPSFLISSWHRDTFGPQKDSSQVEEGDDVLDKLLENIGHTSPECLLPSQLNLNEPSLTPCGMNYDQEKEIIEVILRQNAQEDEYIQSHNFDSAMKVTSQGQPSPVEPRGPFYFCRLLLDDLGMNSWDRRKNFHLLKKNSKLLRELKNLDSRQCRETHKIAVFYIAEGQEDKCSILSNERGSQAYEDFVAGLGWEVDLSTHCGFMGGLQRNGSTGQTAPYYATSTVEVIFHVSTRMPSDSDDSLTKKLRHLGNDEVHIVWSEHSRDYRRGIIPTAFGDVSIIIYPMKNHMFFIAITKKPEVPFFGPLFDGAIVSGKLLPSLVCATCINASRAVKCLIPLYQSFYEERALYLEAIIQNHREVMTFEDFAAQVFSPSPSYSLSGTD

[2] = biological target: the molecule itself; test: as above

B1: RalGAPβ (RGβ), full length, co-expressed in Expi293F and co-purified with FLAG-RGα2 (natural protein, UniProt Q86X10 1-1494, looked up)
chain: MYSEWRSLHLVIQNDQGHTSVLHSYPESVGREVANAVVRPLGQVLGTPSVAGSENLLKTDKEVKWTMEVICYGLTLPLDGETVKYCVDVYTDWIMALVLPKDSIPLPVIKEPNQYVQTILKHLQNLFVPRQEQGSSQIRLCLQVLRAIQKLARESSLMARETWEVLLLFLLQINDILLAPPTVQGGIAENLAEKLIGVLFEVWLLACTRCFPTPPYWKTAKEMVANWRHHPAVVEQWSKVICALTSRLLRFTYGPSFPAFKVPDEDASLIPPEMDNECVAQTWFRFLHMLSNPVDLSNPAIISSTPKFQEQFLNVSGMPQELNQYPCLKHLPQIFFRAMRGISCLVDAFLGISRPRSDSAPPTPVNRLSMPQSAAVSTTPPHNRRHRAVTVNKATMKTSTVSTAHASKVQHQTSSTSPLSSPNQTSSEPRPLPAPRRPKVNSILNLFGSWLFDAAFVHCKLHNGINRDSSMTAITTQASMEFRRKGSQMSTDTMVSNPMFDASEFPDNYEAGRAEACGTLCRIFCSKKTGEEILPAYLSRFYMLLIQGLQINDYVCHPVLASVILNSPPLFCCDLKGIDVVVPYFISALETILPDRELSKFKSYVNPTELRRSSINILLSLLPLPHHFGTVKSEVVLEGKFSNDDSSSYDKPITFLSLKLRLVNILIGALQTETDPNNTQMILGAMLNIVQDSALLEAIGCQMEMGGGENNLKSHSRTNSGISSASGGSTEPTTPDSERPAQALLRDYALNTDSAAGLLIRSIHLVTQRLNSQWRQDMSISLAALELLSGLAKVKVMVDSGDRKRAISSVCTYIVYQCSRPAPLHSRDLHSMIVAAFQCLCVWLTEHPDMLDEKDCLKEVLEIVELGISGSKSKNNEQEVKYKGDKEPNPASMRVKDAAEATLTCIMQLLGAFPSPSGPASPCSLVNETTLIKYSRLPTINKHSFRYFVLDNSVILAMLEQPLGNEQNDFFPSVTVLVRGMSGRLAWAQQLCLLPRGAKANQKLFVPEPRPVPKNDVGFKYSVKHRPFPEEVDKIPFVKADLSIPDLHEIVTEELEERHEKLRSGMAQQIAYEIHLEQQSEEELQKRSFPDPVTDCKPPPPAQEFQTARLFLSHFGFLSLEALKEPANSRLPPHLIALDSTIPGFFDDIGYLDLLPCRPFDTVFIFYMKPGQKTNQEILKNVESSRTVQPHFLEFLLSLGWSVDVGRHPGWTGHVSTSWSINCCDDGEGSQQEVISSEDIGASIFNGQKKVLYYADALTEIAFVVPSPVESLTDSLESNISDQDSDSNMDLMPGILKQPSLTLELFPNHTDNLNSSQRLSPSSRMRKLPQGRPVPPLGPETRVSVVWVERYDDIENFPLSELMTEISTGVETTANSSTSLRSTTLEKEVPVIFIHPLNTGLFRIKIQGATGKFNMVIPLVDGMIVSRRALGFLVRQTVINICRRKRLESDSYSPPHVRRKQKITDIVNKYRNKQLEPEFYTSLFQEVGLKNCSS
notes: RalGAPβ, common regulatory β-subunit of the RalGAP complexes; In the RalGAP tetramer two RGα2/RGβ heterodimers are joined by two RGβ; also called RGβ^fl; RGβ^WT; source: Expi293F cells, transfected, co-purified with RGα2 (M2 anti-FLAG beads; Superose 6 for cryo-EM)
binding result [1]: binds
binding result [2]: binds
